Experimental findings from US20230257475A1 are described below.

Experiment [1] has as its target human CD20 (human) (UniProt P11836). Kind of experiment: flow cytometry on Raji cells (CD20 on the cell surface), serial dilution of the mAb, detection with PE-conjugated mouse anti-human IgG1Fc, MFI. A general note: Flow cytometry measures light scatter and fluorescence of single cells or particles in a stream.
The target is the same in experiment [2]. The experiment is described as above. The source holds these as a separate data set.
In the next experiment the target is human CD22 (human) (UniProt P20273). In words: flow cytometry on K562.huCD22.Luc cells against parental K562 cells.
Experiment [3] concerns the target human CD19, CD20 and CD22 on CD19+CD20+CD22+ tri-positive B lymphoma cells (Raji, Daudi) (human), P15391. In words: cell-based or functional assay.

Where two headings read alike, the source gives them in different places.

UniProt P11836, sequence (P11836 whole entry): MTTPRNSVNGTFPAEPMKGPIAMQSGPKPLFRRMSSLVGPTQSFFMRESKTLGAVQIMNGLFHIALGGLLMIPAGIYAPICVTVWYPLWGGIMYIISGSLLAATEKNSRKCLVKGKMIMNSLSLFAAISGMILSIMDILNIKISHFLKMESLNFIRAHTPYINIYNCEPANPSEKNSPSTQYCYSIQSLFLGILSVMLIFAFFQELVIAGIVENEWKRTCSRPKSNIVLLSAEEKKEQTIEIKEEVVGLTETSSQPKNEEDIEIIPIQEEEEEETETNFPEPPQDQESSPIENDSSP

Consider Leu16 Fab-huIgG1Fc mAb (antibody), for which the half-maximal effective concentration (EC50) – broadly, the midpoint of the concentration-response curve – came out at 8.5 nM with human CD20 (human) [1] and 13.2 nM in the experiment with human CD20 (human) [2].
On to “PE conjugated anti-human CD22 antibody (Miltenyi Biotec. Cat. No. 130-105-086)”, for which, in the experiment with human CD22 (human), the MFI fold over K562 cells (negative control) was 642 fold.
As for Rituximab Fab-huIgG1Fc mAb (antibody), in the experiment with human CD20 (human) [1], the EC50 is 8.1 nM.

B1: AIO-8C1 CAR (protein)
chain: QVQLVESGGGSVQAGGSLRLSCGASGNINSRNCMGWFRQAPGKEREGVAAIGQVTGRSYYVDSVKGRFTISLDNAKNTLYLQMNTLKPEDTAMYYCAAAPGCLLSALRSADYRNWGQGTQVTVSSGGGGSEVQLVESGPGLVKPSQTLSLTCTVSGASITTGEFYWNWFRQPPGKGLEWMGAIAASGSTTYSPSFESRTSISRDTSENQFYLQLSSVTPEDTAVYYCGRSFGVAAVTTGQNRGQGTQVTVSSGGGGSQIQLVESGGGLVQPGGSLRLSCAASGFTFSNYPMTWLRQAPGKGLESVSDITSGGDRPYYADSVKGRFTISRDNAKNMLYLEMNSLKTEDTAVYYCATWDRTLTGQGTQVTVSSTSTTTPAPRPPTPAPTIASQPLSLRPEACRPAAGGAVHTRGLDFACDIYIWAPLAGTCGVLLLSLVITLYCKRGRKKLLYIFKQPFMRPVQTTQEEDGCSCRFPEEEEGGCELRVKFSRSADAPAYQQGQNQLYNELNLGRREEYDVLDKRRGRDPEMGGKPRRKNPQEGLYNELQKDKMAEAYSEIGMKGERRRGKGHDGLYQGLSTATKDTYDALHMQALPPR
In the case of B1, in experiment [3], the IFN-γ release in co-culture with Raji cells, 24 hours, against AIO-7C1 CAR-T cells stood at 2 fold.
